# Test results from the RNAGym collection of RNA variant scans (doi:10.1073/pnas.2313332121).
# B1: TPR t1 (parent)
# chain: GACCAAUCUGCCCUCAGAGCUCGAGAACAUCUUCGGAUGCAGAGGAGGCAGGCUUCGGUGGCGCGAUAGCGCCAACGUCCUCAACCUCCAAUGCAUCCCACCACAUGAUGAUGCCUGAAGAGCCUUGGUUUUUUG
# Variants of: B1
# Experiment: polymerase ribozyme fitness, log enrichment relative to wild type (log ratio); higher = more active; in vitro selection for triplet polymerase activity
# Method in brief: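 PCR was used to build mutant libraries for each subunit of a heterodimeric triplet polymerase ribozyme, which were then transcribed. A single in vitro selection round, in triplicate, used a frozen incubation at −7 °C and recovered extended constructs by gel excision, streptavidin beads and RT-PCR. Fitness is the logarithm of genotype enrichment relative to wild-type enrichment, averaged over replicates with inverse-variance weights. The logarithm is base 2, and after Illumina sequencing only genotypes with ≥10 input reads and ≥1 read per output were kept.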
row,Variant,polymerase ribozyme fitness (log ratio)
1,C28A G39U A43G C56U G61U C64G G120C,-6.64
2,A26G G71A,-2.97
3,A24G C114G,-3.83
4,A27C C82U C124A,-0.986
5,A27U U133A,-3.33
6,C28A C86U A111U,-2.22
7,A27U G39U C72A,-3.78
8,A26C A29G U112G,-7.05
9,G23A G63U,-7.02
10,G25A A43G C72U A111U,-6.94
11,A26U C72G C97G G117U U125A,-6.79
12,A27G C40U G61C,-4.06
13,A27U C62G,-5.76
14,A27C A43G,-5.95
15,G23A G61U,-4.38
16,A27C C94U,-3.16
17,G25U C76A G113C,-5.51
18,A26U U54G U78C C89U,-5.2
19,A26G G60C,-3.07
20,A24G C82G,-1.98
21,A24U C53G C72U C89A C124A,-7.6
22,A27U G44C U96C,-4.49
23,A26G U109G,-6.07
24,G23C C34U U38A A46U C86G G110C,-8.09

row,Variant,polymerase ribozyme fitness (log ratio)
1,C28A A75G G120U U129G,-6.26
2,G23U A121C,-3.5
3,G23C G58A G61A C94G A111C,-7.65
4,A27G C73A,-2.84
5,A27C C53U C72U U125A,-3.83
6,A27U C72U,-3.48
7,A24U G61C,-7.27
8,A27U C73A,-3.09
9,A26G C53A C56U G93C U96G,-4.22
10,A27G A29C G36A A46C C72G U106C U112G U116A,-7.34
11,A27U U78C U81A C94U,-4.92
12,G25A C40U G93C C101U C104G C115U A118G,-6.52
13,A26U A75G A95G,-2.74
14,A27G G93C C104U,-3.11
15,A27G C53U C72A C102U,-3.85
16,G23U A37G C94G,-6.35
17,A26U U54A G110A,-5.04
18,A26C U106G,-6.98
19,A26G A84G G120A,-2.95
20,A26U C70A,-5.16
21,A26U C70U,-4.13
22,G25A A66U C70G G110C,-6.93
23,G23A G77U,-6.47
24,A27C U54A G71A C115A U129A,-5.86

row,Variant,polymerase ribozyme fitness (log ratio)
1,A27G C49U C76G,-2.99
2,A26U A83U,-2.58
3,G25C A26G C28A C72A G110A,-5.56
4,A26U C72A U78C A91C A118G A121U U126C,-5.75
5,A26C C34A C56A C94G A111U,-7
6,A26G G48A C49G A121U,-0.318
7,A26U A29G,-4.77
8,G25U C56U C72G C123G,-6.31
9,A26U G36C,-4.29
10,C28A C70U,-4.86
11,A24C G61U,-6.19
12,A26G G120A,-0.696
13,A24G C40A G117A C124G,-4.17
14,A26C A27C U59A C72U C123A,-6.08
15,G25C G63U C99A C115A,-6.39
16,A24C G120A,-4.02
17,A27G U106A,-2.32
18,A27G G57C G122A U132C,-3.07
19,C28A G51U G60C C80U G110U G117A,-2.3
20,A27G G60U A105U,-5.71
21,A27C C53A C94G,-4.6
22,A27G G63A C79U,-1.86
23,A26U C62A A83U G117A,-6.44
24,A27G G48C G71C G127C,-5.17

row,Variant,polymerase ribozyme fitness (log ratio)
1,A27U A121C,-0.527
2,A26U C53U C72U U116G,-6.07
3,A27U G127A,-4.51
4,A26U C62G,-4.89
5,A27U C114A,-3.53
6,A26U A43U A121U,-4.81
7,A26U U96A C114U G117A,-5.98
8,A27U C40U C72G A100C,-7.09
9,G23U C72G,-6.36
10,G25A G93A,-6.22
11,C28A U112A,-1.21
12,A26U C101A C114A C123G,-6.37
13,A26G C53G G77A,-2.93
14,A26G G48A G63U C101G,-4.73
15,A27U C86A,-3.77
16,A27U C86G,-3.66
17,G25C C31G C34U A43C U112C,-6.28
18,C28G A118G,-2.17
19,A27C C123A,-3.14
20,A26G C94G,-3.05
21,A27U G71U G93U,-5.1
22,G25C C53G,-6.8
23,G25C C53U,-5.22
24,A27G A46C A50U,-4.64

row,Variant,polymerase ribozyme fitness (log ratio)
1,A26U C72U C124U,-1.98
2,A24G G60C C79A G122A,-5.59
3,A27U C40G U132A,-5.01
4,A27U U54A,-2.8
5,A26U G39A C49G G61A C88U C124G,-3.77
6,C28G,-2.31
7,C28A,-3.83
8,A27U G63C G71A C82G G113A U129A,-5.8
9,A26U G36U C101U,-5.32
10,A26U G127C,-3.57
11,A27U U54C G71U C98A U132C,-6.73
12,A26U C72A,-2.97
13,A27G C40G,-1.89
14,A27U G60U,-3.37
15,G25U C34U G63C G93C G117C A121C G122A G127U,-6.74
16,A27U A83U G128C,-6.05
17,A27G A46U G77U U78A,-3.31
18,A24U A43C G60C A84U G110C U129A,-6.86
19,A24G G71C,-2.48
20,A26G U78C,-2.25
21,A27U G52A C88U U96A,-4.5
22,A24U C49G C64A C104U C123G,-6.64
23,A27G C85A,-3.2
24,A27U G44U C56A U133A,-4.31

row,Variant,polymerase ribozyme fitness (log ratio)
1,G23A G120C,-2.89
2,G23A G120A,-4.02
3,C28A A43U C86G,-5.44
4,A27C G47U G63A C86U,-6.59
5,C28A A50G C62U G65U G69U U112A,-3.65
6,A24G A119U,-2.54
7,A24G C72G C94A,-2.87
8,C28A C72G,-2.92
9,A24G G44U G61A A74U U133G,-3.56
10,A26U G44C G48C C101A A111G U112A C124A,-8.24
11,A26U C56A U59C,-4.4
12,A27U G63U U96G G127C,-6.08
13,A27U C101A,-4.18
14,A27C G61A,-4.32
15,A27G G61C C88G G128A,-7.26
16,A24G A46G G57U A100C,-4
17,A26U C53U G71C A118U,-3.17
18,G25U A26G C64U,-2.74
19,A24G G58C A118U,-2.06
20,A27G G57U,-2.3
21,A24G U96G C102A,-5.25
22,A27U C72U C85G A111U U132A,-4.04
23,A24G C56G C72U C86U U92A U129C,-6.8
24,A24U U30C G58A G63C A95G G120C,-8.06

row,Variant,polymerase ribozyme fitness (log ratio)
1,G25C G61A,-4.35
2,C28A U54A G71U G110U,1.85
3,A27U G135U,-4.15
4,A27C C62U C94U,-2.79
5,A26U U81C,-3.05
6,A24G G71C G120U,-2.78
7,G23C G44U C88U A121G,-6.39
8,G23U G52A C53G C115U,-7.2
9,A24C G65A C85A C101G G113C,-6.86
10,A27U C70U C73G A84G C89G C114G,-6.4
11,C28G A95U U125A,-3.63
12,A26G G69A A91U U133G,-6.73
13,A26G C62U C80G G110C,-7.8
14,A26U G69A U78G U106A,-4.44
15,A27G A41U C64U,-3.32
16,C28G A111G,-4.41
17,A26U G61A,-3.03
18,A24U G69U,-3.76
19,A26C G61A U96A,-5.9
20,G23U A24C C31G C72U A83C A90U G93A G107U U109A,-6.51
21,A27C U87A A91G,-4.73
22,A27G C49A U78C,-2.36
23,C28A C97U G110C,-1.97
